From US20200017592A1
Like-named read-outs stand apart in the source and are kept apart here.

T1: human IL-36R (IL1RL2) on primary human cells (human) (UniProt Q9HB29)
T1 sequence (looked up): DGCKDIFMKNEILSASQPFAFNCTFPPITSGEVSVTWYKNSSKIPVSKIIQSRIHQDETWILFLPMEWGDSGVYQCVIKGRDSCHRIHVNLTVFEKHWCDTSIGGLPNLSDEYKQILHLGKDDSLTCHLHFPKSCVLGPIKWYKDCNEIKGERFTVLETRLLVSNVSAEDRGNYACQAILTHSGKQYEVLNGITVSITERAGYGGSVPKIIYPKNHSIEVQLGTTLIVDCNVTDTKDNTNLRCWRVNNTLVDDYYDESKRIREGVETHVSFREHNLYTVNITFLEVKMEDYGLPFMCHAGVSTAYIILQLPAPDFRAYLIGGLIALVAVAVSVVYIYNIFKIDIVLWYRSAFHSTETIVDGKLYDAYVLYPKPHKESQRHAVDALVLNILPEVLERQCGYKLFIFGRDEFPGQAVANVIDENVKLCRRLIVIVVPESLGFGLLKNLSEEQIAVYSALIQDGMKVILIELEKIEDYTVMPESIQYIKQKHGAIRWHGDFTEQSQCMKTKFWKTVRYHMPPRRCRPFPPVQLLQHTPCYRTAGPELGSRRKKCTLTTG


How the values were obtained:
[1] = target: T1, human IL-36R (IL1RL2) on primary human cells (human); experiment: cell-based or functional assay
[2] = target: full-length human IL-36R on cells (human) (UniProt Q9HB29)
[3] = target: full-length human IL-36R on cells (human) (UniProt Q9HB29); remark: listed apart in the source
[4] = target: Macaca fascicularis IL-36R on cells (Macaca fascicularis); experiment: cell-based or functional assay
Macaca fascicularis IL-36R on cells (Macaca fascicularis), sequence (chain, as listed by the source): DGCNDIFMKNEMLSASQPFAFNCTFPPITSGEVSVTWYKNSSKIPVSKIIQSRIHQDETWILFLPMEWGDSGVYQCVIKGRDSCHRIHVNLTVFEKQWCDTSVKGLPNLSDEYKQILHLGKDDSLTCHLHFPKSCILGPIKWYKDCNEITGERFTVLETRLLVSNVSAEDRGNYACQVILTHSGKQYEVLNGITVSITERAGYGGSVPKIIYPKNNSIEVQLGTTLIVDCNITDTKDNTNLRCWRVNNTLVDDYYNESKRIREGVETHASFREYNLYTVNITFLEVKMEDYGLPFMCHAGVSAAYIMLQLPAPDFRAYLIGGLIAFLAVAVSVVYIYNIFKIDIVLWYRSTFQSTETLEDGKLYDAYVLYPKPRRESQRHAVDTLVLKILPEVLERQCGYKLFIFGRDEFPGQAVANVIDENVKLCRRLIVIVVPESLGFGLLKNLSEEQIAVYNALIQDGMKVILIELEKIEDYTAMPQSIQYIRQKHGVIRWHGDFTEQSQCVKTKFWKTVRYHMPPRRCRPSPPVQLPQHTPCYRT

[5] = target: full-length human IL-36R on cells (human) (UniProt Q9HB29); experiment: cell-based or functional assay
[6] = target: Macaca fascicularis IL-36R extracellular domain expressed with a C-terminal myc-myc-hexahistidine tag (mfIL-36R-MMH) (Macaca fascicularis); experiment: SPR Biacore 4000, mAb captured on anti-hFc, 37C
[7] = target: Macaca fascicularis IL-36R extracellular domain expressed with a C-terminal myc-myc-hexahistidine tag (Macaca fascicularis); experiment: SPR (Biacore 4000), mAb captured on anti-human Fc, 25°C
[8] = target: Macaca fascicularis IL-36R extracellular domain expressed with a C-terminal myc-myc-hexahistidine tag (Macaca fascicularis); experiment: SPR Biacore T200, mAb captured by anti-hFc, 25C, PBS-T pH 6.0
[9] = target: Macaca fascicularis IL-36R extracellular domain expressed with a C-terminal myc-myc-hexahistidine tag (Macaca fascicularis); experiment: SPR Biacore T200, mAb captured by anti-hFc, 25C, PBS-T pH 7.4
[10] = target: Macaca fascicularis IL-36R extracellular domain expressed with a C-terminal myc-myc-hexahistidine tag (Macaca fascicularis); experiment: SPR Biacore T200, mAb captured by anti-hFc, 37C, PBS-T pH 6.0
[11] = target: Macaca fascicularis IL-36R extracellular domain expressed with a C-terminal myc-myc-hexahistidine tag (Macaca fascicularis); experiment: SPR Biacore T200, mAb captured by anti-hFc, 37C, PBS-T pH 7.4

Row | Binder | 100 nM mfIL-36R-MMH Bound (RU) [6] [RU] | Kd [6] [nM] | koff [6] [s⁻¹] | kon [6] [M⁻¹ s⁻¹] | t1/2 [6] [min] | 100 nM mfIL-36R-MMH Bound (RU) [7] [RU] | Kd [7] [nM] | koff [7] [s⁻¹] | kon [7] [M⁻¹ s⁻¹] | t½ [7] [min] | 100 nM mfIL-36R-MMH Bound (RU) [8] [RU] | koff [8] [s⁻¹] | t½ [8] [min] | 100 nM mfIL-36R-MMH Bound (RU) [9] [RU] | koff [9] [s⁻¹] | t½ [9] [min] | 100 nM mfIL-36R-MMH Bound (RU) [10] [RU] | koff [10] [s⁻¹] | t½ [10] [min] | 100 nM mfIL-36R-MMH Bound (RU) [11] [RU] | also measured
1 | rhIL-36β/IL-1F8 [aa5-157] (ligand, human, UniProt Q9NZH7 5-157, looked up) REAAPKSYAIRDSRQMVWVLSGNSLIAAPLSRSIKPVTLHLIACRDTEFSDKEKGNMVYLGIKGKDLCLFCAEIQGKPTLQLKLQGSQDNIGKDTCWKLVGIHTCINLDVRESCFMGTLDQWGIGVGRKKWKSSFQHHHLRKKDKDFSSMRTN |  |  |  |  |  |  |  |  |  |  |  |  |  |  |  |  |  |  |  |  | EC50[M], IL-8 production, Intestinal MyoFibroblasts (InMyoFib), hIL-36β [1]: 1.18e-09 M; EC50[M], IL-8 production, Normal Epidermal Keratinocytes (NHEK), hIL-36β [1]: 1.18e-09 M; EC50[M], IL-8 production, PB-derived CD14+ Monocytes, hIL-36β [1]: 2.63e-09 M
2 | human IL-36β (ligand, UniProt Q9NZH7 5-157, looked up) REAAPKSYAIRDSRQMVWVLSGNSLIAAPLSRSIKPVTLHLIACRDTEFSDKEKGNMVYLGIKGKDLCLFCAEIQGKPTLQLKLQGSQDNIGKDTCWKLVGIHTCINLDVRESCFMGTLDQWGIGVGRKKWKSSFQHHHLRKKDKDFSSMRTN |  |  |  |  |  |  |  |  |  |  |  |  |  |  |  |  |  |  |  |  | EC50 (read off the curve) of hIL36β, NFκB-luciferase RLU, in the presence of 0.1 nM REGN6489 [2]: 0.005 nM; EC50 (read off the curve) of hIL36β, NFκB-luciferase RLU, in the presence of 0.3 nM REGN6489 [2]: 0.01 nM; EC50 (read off the curve) of hIL36β, NFκB-luciferase RLU, in the presence of 1 nM REGN6489 [2]: 0.03 nM; EC50 (read off the curve) of hIL36β, NFκB-luciferase RLU, in the presence of 3 nM REGN6489 [2]: 0.1 nM; EC50 (read off the curve) of hIL36β, NFκB-luciferase RLU, in the presence of 9 nM REGN6489 [2]: 0.3 nM; EC50 (read off the curve) of hIL36β, NFκB-luciferase RLU, no antibody [2]: 0.002 nM; EC50 (read off the curve) of hIL36β, NFκB-luciferase RLU, in the presence of 0.3 nM REGN6490 [3]: 0.008 nM; EC50 (read off the curve) of hIL36β, NFκB-luciferase RLU, in the presence of 1 nM REGN6490 [3]: 0.02 nM; EC50 (read off the curve) of hIL36β, NFκB-luciferase RLU, in the presence of 3 nM REGN6490 [3]: 0.08 nM; EC50 (read off the curve) of hIL36β, NFκB-luciferase RLU, in the presence of 9 nM REGN6490 [3]: 0.3 nM; EC50 (read off the curve) of hIL36β, NFκB-luciferase RLU, no antibody [3]: 0.003 nM; EC50, NFκB-luciferase, HEK293/NFκB-luc/MfIL-36R cells [4]: 0.27 nM; EC50, NFκB-luciferase, HEK293/NFκB-luc/hIL-36R cells [5]: 0.014 nM
3 | H4H14709P (antibody, human IgG4 S228P, kappa, V domains shown) VH: EVQLVESGGGLVQPGGSLRLSCAASGFTFSDYAMSWVRQAPGKGLEWVSGISGNGGDTYYGDFVKGRFTISRDNSKNTLYLQMNSLRGEDTAAYFCVIDLDYWGQGTLVTVSS VL: DIQMTQSPSTLSASEGDRVTITCRASQSISSWLAWYQQKPGKAPRLLIYKASILGDGVPSRFSGSGSGTEFTLTISSLQPDDFATYYCHQYNSYLWTFGQGTKVEIKR | 66 | 17.7 | 0.000871 | 49100 | 13 | 34 | 14.3 | 0.000401 | 28000 | 29 | 48 | 0.00112 | 10 | 57 | 0.000519 | 22 | 80 | 0.00294 | 4 | 92 | koff [11]: 0.000987 s⁻¹; t½ [11]: 12 min
4 | H4H14700P2 (antibody, human IgG4 S228P, kappa, V domains shown) VH: EVQLVESGGGLVQPGRSLRLSCAASGFTFDDYAMHWVRQTPGKGLEWVSVISWNSDVIAYSDSVKGRFTISRDNAKNSLYLQMNSLGTEDTALYYCAKGHNWNFFDYWGQGTLVTVSS VL: EIVLTQSPATLSLSPGERATLSCRASQSVSSYLAWYQQKPGQAPRLLIYNVANRATDIPARFSGSGSGTDFTLTISGLEPEDFAVYFCQQRSNWPLTFGGGTKVEIKR | 67 | 27.8 | 0.00198 | 71400 | 6 | 48 | 10.6 | 0.000635 | 60200 | 18 | 80 | 0.00171 | 7 | 91 | 0.000821 | 14 | 97 | 0.00333 | 3 | 108 | koff [11]: 0.0018 s⁻¹; t½ [11]: 6 min
5 | H4H14708P2 (antibody, human IgG4 S228P, kappa, V domains shown) VH: EVQLVESGGDLVQPGRSLRLSCAASGFTFDDYAMHWVRQAPGKGLEWVSVISWNSDVIAYSDSVKGRFTISRDNAKNSLYLQMNSLRTEDTALYYCTKGHKWSFFDYWGQGTLVTVSS VL: EIVLTQSPATLSLSPGERATLSCRASQSISSYLAWYQQKPGQAPRLLIFNVANRATDIPARFSGSGSGTDFTLTISSLEPEDFAVYYCQQRSNWPLTFGGGTKVEIKR | 75 | 30.4 | 0.00181 | 59600 | 6 | 51 | 12.9 | 0.000579 | 45000 | 20 | 47 | 0.0015 | 8 | 57 | 0.000752 | 15 | 58 | 0.0031 | 4 | 66 | koff [11]: 0.00169 s⁻¹; t½ [11]: 7 min
